This note sets out measurements from paper PMC3101628 (Nature structural & molecular biology, 2011).

What all share (assay): SEC
For orientation: Size exclusion chromatography separates by hydrodynamic size, large species first.

For data set [1], the target named is T1, S. cerevisiae ribonucleotide reductase RR1 (ScRR1), wild type (S. cerevisiae, UniProt P21524 1-888).
T1 sequence: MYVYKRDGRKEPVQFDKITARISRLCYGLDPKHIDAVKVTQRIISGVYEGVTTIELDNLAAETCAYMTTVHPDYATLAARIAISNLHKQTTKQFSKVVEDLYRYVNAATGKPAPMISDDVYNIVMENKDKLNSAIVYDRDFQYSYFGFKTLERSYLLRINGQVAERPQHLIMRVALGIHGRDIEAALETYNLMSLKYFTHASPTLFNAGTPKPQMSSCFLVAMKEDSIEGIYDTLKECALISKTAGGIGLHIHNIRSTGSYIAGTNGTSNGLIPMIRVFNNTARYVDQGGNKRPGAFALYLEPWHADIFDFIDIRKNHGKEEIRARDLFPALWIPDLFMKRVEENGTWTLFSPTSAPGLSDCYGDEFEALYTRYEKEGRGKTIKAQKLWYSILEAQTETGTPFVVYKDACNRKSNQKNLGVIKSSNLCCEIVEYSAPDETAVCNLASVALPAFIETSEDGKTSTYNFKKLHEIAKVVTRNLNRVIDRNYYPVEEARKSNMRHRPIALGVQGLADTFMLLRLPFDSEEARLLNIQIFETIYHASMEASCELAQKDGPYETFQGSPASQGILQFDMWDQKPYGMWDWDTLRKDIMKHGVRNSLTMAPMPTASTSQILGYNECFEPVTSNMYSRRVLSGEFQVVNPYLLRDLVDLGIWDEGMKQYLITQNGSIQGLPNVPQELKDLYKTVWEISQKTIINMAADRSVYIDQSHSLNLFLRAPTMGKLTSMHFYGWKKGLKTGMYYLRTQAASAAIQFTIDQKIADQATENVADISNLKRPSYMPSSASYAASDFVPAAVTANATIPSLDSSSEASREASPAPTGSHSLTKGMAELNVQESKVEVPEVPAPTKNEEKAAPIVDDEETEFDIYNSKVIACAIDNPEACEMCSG

The target in data set [2] is T2, hRRM1 with the first 74 residues deleted (t-hRRM1) (human, UniProt P23921 75-792).
T2 sequence (looked up): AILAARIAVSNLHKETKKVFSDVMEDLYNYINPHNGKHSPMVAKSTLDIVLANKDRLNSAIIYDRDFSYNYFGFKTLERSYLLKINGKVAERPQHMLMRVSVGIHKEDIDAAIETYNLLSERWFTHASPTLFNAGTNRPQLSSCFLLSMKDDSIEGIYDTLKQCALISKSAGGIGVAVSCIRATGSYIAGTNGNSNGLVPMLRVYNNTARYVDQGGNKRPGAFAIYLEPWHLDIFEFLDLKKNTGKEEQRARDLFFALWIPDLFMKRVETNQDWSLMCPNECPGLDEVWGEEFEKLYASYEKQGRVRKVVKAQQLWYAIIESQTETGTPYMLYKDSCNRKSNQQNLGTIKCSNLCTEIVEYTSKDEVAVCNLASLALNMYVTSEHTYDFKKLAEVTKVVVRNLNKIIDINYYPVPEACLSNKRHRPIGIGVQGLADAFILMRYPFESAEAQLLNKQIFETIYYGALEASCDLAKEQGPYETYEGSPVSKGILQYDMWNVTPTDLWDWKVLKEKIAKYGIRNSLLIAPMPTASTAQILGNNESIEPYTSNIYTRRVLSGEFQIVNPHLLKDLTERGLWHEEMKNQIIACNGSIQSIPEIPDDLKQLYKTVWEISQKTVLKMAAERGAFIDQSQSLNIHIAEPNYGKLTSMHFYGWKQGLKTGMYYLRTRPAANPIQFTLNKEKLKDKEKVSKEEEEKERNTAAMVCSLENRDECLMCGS

Data set [3] concerns the molecule itself.

B1: yeast RR2●RR4 hetero-dimer (ScRR2●ScRR4) (complex, S. cerevisiae)
chain 1: MPKETPSKAAADALSDLEIKDSKSNLNKELETLREENRVKSDMLKEKLSKDAENHKAYLKSHQVHRHKLKEMEKEEPLLNEDKERTVLFPIKYHEIWQAYKRAEASFWTAEEIDLSKDIHDWNNRMNENERFFISRVLAFFAASDGIVNENLVENFSTEVQIPEAKSFYGFQIMIENIHSETYSLLIDTYIKDPKESEFLFNAIHTIPEIGEKAEWALRWIQDADALFGERLVAFASIEGVFFSGSFASIFWLKKRGMMPGLTFSNELICRDEGLHTDFACLLFAHLKNKPDPAIVEKIVTEAVEIEQRYFLDALPVALLGMNADLMNQYVEFVADRLLVAFGNKKYYKVENPFDFMENISLAGKTNFFEKRVSDYQKAGVMSKSTKQEAGAFTFNEDF
chain 2: MEAHNQFLKTFQKERHDMKEAEKDEILLMENSRRFVMFPIKYHEIWAAYKKVEASFWTAEEIELAKDTEDFQKLTDDQKTYIGNLLALSISSDNLVNKYLIENFSAQLQNPEGKSFYGFQIMMENIYSEVYSMMVDAFFKDPKNIPLFKEIANLPEVKHKAAFIERWISNDDSLYAERLVAFAAKEGIFQAGNYASMFWLTDKKIMPGLAMANRNICRDRGAYTDFSCLLFAHLRTKPNPKIIEKIITEAVEIEKEYYSNSLPVEKFGMDLKSIHTYIEFVADGLLQGFGNEKYYNAVNPFEFMEDVATAGKTTFFEKKVSDYQKASDMSKSATPSKEINFDDDF
Take B1: the binding result in data set [1] is on record as “binds”.

B2: human ribonucleotide reductase small subunit hRRM2 (enzyme, UniProt P31350 1-389, looked up)
chain: MLSLRVPLAPITDPQQLQLSPLKGLSLVDKENTPPALSGTRVLASKTARRIFQEPTEPKTKAAAPGVEDEPLLRENPRRFVIFPIEYHDIWQMYKKAEASFWTAEEVDLSKDIQHWESLKPEERYFISHVLAFFAASDGIVNENLVERFSQEVQITEARCFYGFQIAMENIHSEMYSLLIDTYIKDPKEREFLFNAIETMPCVKKKADWALRWIGDKEATYGERVVAFAAVEGIFFSGSFASIFWLKKRGLMPGLTFSNELISRDEGLHCDFACLMFKHLVHKPSEERVREIIINAVRIEQEFLTEALPVKLIGMNCTLMKQYIEFVADRLMLELGFSKVFRVENPFDFMENISLEGKTNFFEKRVGEYQRMGVMSSPTENSFTLDADF
By stoichiometry N is commonly meant the number of molecules, sites or subunits per partner or assembly. Take B2: the binding result in data set [2] is “binds”. Moreover, the “stoichiometry N” value in data set [3] was determined as 2.
